Test results taken from PMC8630228.
Values joined by “and” are separate entries in the source; they are usually repeats but may differ in a detail not shown here. Equal entries are not always repeated.

Target: precursor δ-latroinsectotoxin (full-length precursor δ-LIT) (Latrodectus tredecimguttatus)
Assay: cryo-EM, reference-free 2D classification of particles; full-length δ-LIT at 0.4 mg/ml on holey carbon grids; particles sorted into monomer, dimer, trimer and tetramer classes

## precursor δ-latroinsectotoxin (full-length precursor δ-LIT) (natural protein)
  percent of particles that are dimers: 50%
  percent of particles that are tetramers: 2.5%
  percent of particles that are trimers: 2.5%
  stoichiometry N: 2 and 3 and 4
